Experimental data reported in patent US20220331371A1, “DEVELOPMENT OF EMBRYONIC-LIKE TISSUE FROM STEM CELLS” (The Regents of the University of Michigan, priority 2019, published 2022).

What was measured:
Assay type in all cases: cell-based, human
[1] = test system: hPGCLCs in P-ELS; experiment: hPGCLC specification in P-ELS; conditions: P-ELS treated with 0.4 μM or 2 μM
Source text: (§1) Cell lines. hPSC lines used in this study include H1 human ES cell (WA01, WiCell; NIH registration number: 0043), H9 human ES cell (WA09, WiCell; NIH registration number: 0062) and 1196a (a human iPSC line from the University of Michigan Pluripotent Stem Cell Core31). All hPSC lines have been authenticated by original sources as well as in-house by immunostaining for pluripotency markers and successful differentiation to the three germ layers. All hPSC lines are maintained in a feeder-free system for at least ten passages and authenticated as karyotypically normal. Karyotype analysis was performed by Cell Line Genetics. All hPSC lines are tested negative for mycoplasma contamination (LookOut Mycoplasma PCR Detection Kit, Sigma-Aldrich). Cell culture. hPSCs were maintained in a standard feeder-free culture system using mTeSR medium (mTeSR; STEMCELL Technologies) or TeSR-E8 medium (Essential 8 or E8; STEMCELL Technologies) and lactate dehydrogenase-elevating virus (LDEV)-free, human ES cell-qualified reduced growth factor basement membrane matrix Geltrex (Thermo Fisher Scientific; derived from Engelbreth-Holm-Swarm tumors similarly to Matrigel). Cell cultures were visually examined during each passage to ensure absence of spontaneously differentiated, mesenchymal-like cells in culture. All hPSCs were used before reaching P70. Device fabrication. […]

[2] = test system: PrePS-EPI-like cells in P-ELS; experiment: Posterior primitive streak-like cell development in P-ELS with antagonists in the induction channel; conditions: prolonged culture to t=48 h, IWR1 10 μM in induction channel
Source text: as §1, with “fabrication. The microfluidic device consists of a polydimethylsiloxane (PDMS) structure layer bonded to a coverslip. The PDMS structure layer is made by mixing PDMS curing agent and base polymer (Sylgard 184; Dow Coming) at a ratio of 1:10 before casting PDMS prepolymer onto a microfabricated silicon mold and baking at 110° C. for 40 min. Medium reservoirs (8 mm in diameter) and gel-loading ports (1.2 mm in diameter) were then punched into the PDMS structure layer using Harris Uni-Core punch tools (Ted Pella). After cleaning with ethanol and air plasma activation, the PDMS structure layer was bonded to a coverslip before baking at 80° C. overnight. Before usage, the microfluidic device was sterilized under UV light for 30 min.” for “fabrication.”

[3] = test system: embryonic-like sacs (P-ELS, A-ELS); experiment: Microfluidic generation of asymmetric embryonic-like sacs with morphogens in the induction channel; conditions: for Cyst phenotype obtained: 50 ng ml^−1 each, supplemented into the induction channel
Source text: Cell lines. hPSC lines used in this study include H1 human ES cell (WA01, WiCell; NIH registration number: 0043), H9 human ES cell (WA09, WiCell; NIH registration number: 0062) and 1196a (a human iPSC line from the University of Michigan Pluripotent Stem Cell Core31). All hPSC lines have been authenticated by original sources as well as in-house by immunostaining for pluripotency markers and successful differentiation to the three germ layers. All hPSC lines are maintained in a feeder-free system for at least ten passages and authenticated as karyotypically normal. Karyotype analysis was performed by Cell Line Genetics. All hPSC lines are tested negative for mycoplasma contamination (LookOut Mycoplasma PCR Detection Kit, Sigma-Aldrich). Cell culture. hPSCs were maintained in a standard feeder-free culture system using mTeSR medium (mTeSR; STEMCELL Technologies) or TeSR-E8 medium (Essential 8 or E8; STEMCELL Technologies) and lactate dehydrogenase-elevating virus (LDEV)-free, human ES cell-qualified reduced growth factor basement membrane matrix Geltrex (Thermo Fisher Scientific; derived from Engelbreth-Holm-Swarm tumors similarly to Matrigel). Cell cultures were visually examined during each passage to ensure absence of spontaneously differentiated, mesenchymal-like cells in culture. All hPSCs were used before reaching P70. Device fabrication. The microfluidic device consists of a polydimethylsiloxane (PDMS) structure layer bonded to a coverslip. The PDMS structure layer is made by mixing PDMS curing agent and base polymer (Sylgard 184; Dow Coming) at a ratio of 1:10 before casting PDMS prepolymer onto a microfabricated silicon mold and baking at 110° C. for 40 min. Medium reservoirs (8 mm in diameter) and gel-loading ports (1.2 mm in diameter) were then punched into the PDMS structure layer using Harris Uni-Core punch tools (Ted Pella). After cleaning with ethanol and air plasma activation, the PDMS structure layer was bonded to a coverslip before baking at 80° C. overnight. Before usage, the microfluidic device was sterilized under UV light for 30 min. Geltrex diluted in mTeSR (8 mg ml^−1) was then injected into the central gel channel and allowed to cure for 10 min at 37° C. in an incubator. The central gel channel was separated from the cell loading and induction channels by trapezoid-shaped supporting posts. Diluted Geltrex matrix was contained in the gel channel by supporting posts owing to surface tension. Upon gelation, Geltrex matrix contracts, generating concave Geltrex pockets between supporting posts. mTeSR medium was immediately added to medium reservoirs to fill both the cell loading and induction channels. The microfluidic device was then incubated at 37° C. and 5% CO2, for 24 h to stabilize the Geltrex matrix in the gel channel. Microfluidic assays. Colonies of hPSCs were dissociated by Accutasc. (Sigma-Aldrich) at 37° C., for 10 min before being suspended in mTeSR as single cells. Cells were then centrifuged and resuspended in mTeSR, containing 10 μM Y27632 (Tocris), a ROCK inhibitor that prevents dissociation-induced apoptosis of hPSCs32, at a concentration of 8×10^6 cells per ml. After aspirating mTeSR from medium reservoirs, 10 μl hPSC suspension was introduced into the cell-loading channel (t=−18 h), The microfluidic device was then tilted 90° for 10 min to allow cell settlement into Geltrex pockets and their clustering and adhesion to Geltrex matrix. Medium reservoirs were then refilled with fresh mTeSR medium containing 10 μM Y27632. […]

Molecule: O=C(NNc1nc2cc(F)ccc2n2cccc12)c1cnccn1 [SC144]
- Effect on hPGCLC specification [1]: did not affect

Molecule: O=C(Nc1cccc2cccnc12)c1ccc(N2C(=O)[C@@H]3[C@H](C2=O)[C@@H]2C=C[C@H]3C2)cc1 [IWR1]
- Effect on progressive development of P-ELS [2]: does not affect

B1: BMP4: Bone Morphogenic Protein 4 (R&D Systems) (protein, UniProt P12644 293-408, looked up)
Bone morphogenetic protein 4: SPKHHSQRARKKNKNCRRHSLYVDFSDVGWNDWIVAPPGYQAFYCHGDCPFPLADHLNSTNHAIVQTLVNSVNSSIPKACCVPTELSAISMLYLDEYDKVVLKNYQEMVVEGCGCR
- Cysts differentiated into asymmetrical E-cadherin+ sacs (P-ELS) ([3]; BMP4 50 ng ml^−1 in induction channel from t=0 h, t=36 h): 92%
- Cysts patterned to amniotic ectoderm-like fate (A-ELS) ([3]; BMP4 in induction channel, IWP2 and noggin in cell-loading channel, t=36 h): 96%

B2: Activin A: exogenous activin protein (R&D Systems) (protein, UniProt P08476 311-426, looked up)
Inhibin beta A chain: GLECDGKVNICCKKQFFVSFKDIGWNDWIIAPSGYHANYCEGECPSHIAGTSGSSLSFHSTVINHYRMRGHSPFANLKSCCVPTKLRPMSMLYYDDGQNIIKKDIQNMIVEECGCS
modifications: Inhibin beta A chain
- Cyst phenotype obtained [3]: cysts containing OCT4^+NANOG^+EPILCs intermixed with EOMES^+T^+CDX2^− anterior primitive streak-like cells

B3: WNT3A: exogenous Wnt protein (R&D Systems) (protein, UniProt P56704 19-352, looked up)
Protein Wnt-3a: SYPIWWSLAVGPQYSSLGSQPILCASIPGLVPKQLRFCRNYVEIMPSVAEGIKIGIQECQHQFRGRRWNCTTVHDSLAIFGPVLDKATRESAFVHAIASAGVAFAVTRSCAEGTAAICGCSSRHQGSPGKGWKWGGCSEDIEFGGMVSREFADARENRPDARSAMNRHNNEAGRQAIASHMHLKCKCHGLSGSCEVKTCWWSQPDFRAIGDFLKDKYDSASEMVVEKHRESRGWVETLRPRYTYFKVPTERDLVYYEASPNFCEPNPETGSFGTRDRTCNVSSHGIDGCDLLCCGRGHNARAERRREKCRCVFHWCCYVSCQECTRVYDVHTCK
- Cyst phenotype obtained [3]: columnar epiblast-like cysts containing OCT4^+NANOG^+, COX2^−EOMES^−T^− EPILCs
- Requirement for embryonic-like sac formation ([3]; induction channel, with or without BMP4): dispensable
